Laboratory results reported in the supplement of paper PMC10126150.
± gives the standard deviation of the averaged measurements.

Test system: ATP
Test: switch fluorescence ratio, 500 uM ATP over buffer (Cy3 cluster intensity, sum of 5 cycles each) (fold (ratio)); higher = stronger signal-on switching upon ATP binding; sequences stand for … in TCGTCGGCAGCGTCAGATGTGTATAAGAGACAGTTTTTTTTTTTTTTTTTTTTTTTTT…TC
Settings: aptamer strand: ATP DNA aptamer (quencher-CACCTGGGGGAGTATTGCGGAGGAAGG + anchor), 100 nM annealed; ATP concentration: 500 uM
How it was run: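 Values give the fluorescence ratio for each switch-domain sequence, averaged from per-cluster ratios of summed target-cycle to summed buffer-cycle Cy3 intensity. The Cy3-labelled switching-strand clusters sat on a modified Illumina MiSeq flow-cell, were annealed to 100 nM quencher-labelled ATP aptamer, and were imaged in selection buffer, then after 15 min with 500 uM ATP at 22 °C. Five cycles ran with NaOH stripping and re-annealing between them, and clusters outside 100-1000 RFU were excluded.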
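Also: ATP exposure 15 min at 22 °C before imaging.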

Sequence	switch fluorescence ratio
GAGCGCTTGG	1.01 ± 0.037
ATTATACCTT	1.182 ± 0.011
ACGGTAGAAA	1.01 ± 0.012
AGGTTTTCTC	1.02 ± 0.052
ATGAGTTGTG	1 ± 0.017
GGGTTGTTTC	0.973 ± 0.027
GATACGGGGC	1.02 ± 0.014
ACTGTTTTGC	0.999 ± 0.019
TTTCTAAGTC	0.9559 ± 0.006
AAATTTTTTG	1 ± 0.023
TTTTGGCCTT	0.997 ± 0.015
GATAACCATG	0.9933 ± 0.0035
GGCCAGGGTG	2.29 ± 0.07
GGTCCTGTTT	0.994 ± 0.02
CATTACAGTG	1.01 ± 0.014
GGATGGGTGC	0.9939 ± 0.0091
AGGTTAGGCT	0.989 ± 0.014
GGGGGCTAAG	1.026 ± 0.0039
TTATGAAGTT	0.996 ± 0.014
TTTTTCCTTT	1.02 ± 0.033
TAAGCATATG	1.011 ± 0.0037
CGTAGTGGCT	1.04 ± 0.04
TGCGGAAGGC	1.11 ± 0.013

Sequence	switch fluorescence ratio
CATACACCTT	1.21 ± 0.032
AAGGCACTTT	1.02 ± 0.013
CATTCGGGGT	0.994 ± 0.029
AATGTGGCGC	0.9643 ± 0.0043
TTTAGGATCT	0.954 ± 0.017
TTGTGAAGGC	1.04 ± 0.015
ATCGTGGGTG	0.984 ± 0.015
TCCGAAGGGT	0.991 ± 0.045
ATAGGGGCTA	0.988 ± 0.02
GGGAACATTT	1.022 ± 0.0086
AGGGTTGTGT	1.02 ± 0.029
CCAGCCGTCG	1.07 ± 0.04
TTATGTTTTA	0.9965 ± 0.0046
CCTGTAGGTA	1.009 ± 0.0069
GGGGAGACTG	0.956 ± 0.028
ACTCCTCTTT	1.093 ± 0.0093
CTGTAAGTGG	0.989 ± 0.017
GGCGGGGGTG	1.04 ± 0.065
GGGAGACCAA	0.9822 ± 0.0031
TGGGCAACTC	1.06 ± 0.021
GCTAACCGTA	1.04 ± 0.023
CCAGGATTAT	1.027 ± 0.0034
AACCTGGTAT	1.01 ± 0.035

Sequence	switch fluorescence ratio
CTCAGTAGTT	1.018 ± 0.0053
TTGTTGGGG	0.994 ± 0.03
CCTGGGGGC	1.1 ± 0.056
GATCGCGTGG	0.968 ± 0.012
ATAAAATAAA	0.976 ± 0.031
CATTAGATCG	0.997 ± 0.044
AATGTGTGCT	0.949 ± 0.0099
ACTCCTGTAA	1.13 ± 0.11
TTTCAGTGCT	0.9947 ± 0.005
ACGGGCTGTG	1.01 ± 0.054
ATAAAGCAGT	1.02 ± 0.048
TACGGTTCGC	1.02 ± 0.019
AGGTTGTGAC	0.989 ± 0.029
CGGGTGATTA	1 ± 0.035
GGTTTAGGGA	0.996 ± 0.039
TCAAAGAATA	1.02 ± 0.029
TAGTTAGGGT	0.9959 ± 0.0093
TAGGGCTGTG	0.995 ± 0.059
GCTGATGTTC	1.0082 ± 0.001
TCTCGGAAGA	1.01 ± 0.022
CATGGAGTAC	1.02 ± 0.032
CACTAATAAT	1.033 ± 0.0029
AATGAAAGCC	1.26 ± 0.39

Sequence	switch fluorescence ratio
GCTAATTTTT	0.996 ± 0.018
AGGGGGACAC	1 ± 0.028
GAGGACTATT	0.999 ± 0.046
AAAGCTCGCT	0.973 ± 0.015
ACGGAAGGGA	0.991 ± 0.036
GGTGTTTGCT	0.965 ± 0.022
TTGTTCGCTT	1.03 ± 0.025
AGGGATTCCG	1 ± 0.032
AGCTAGTATG	0.993 ± 0.016
GCGTTATGTG	1.017 ± 0.01
GGGTGTCGGT	0.984 ± 0.024
TTTCGTCCTT	1.18 ± 0.014
CAGGGGGGGA	1.01 ± 0.044
TCTGTGGGGA	1.04 ± 0.045
TCCCCCTGTT	1.01 ± 0.013
GGGCTTATGG	0.975 ± 0.054
AGGTAGGAAG	0.999 ± 0.034
ACTAATGGTT	1.03 ± 0.022
ATGGGCTAGC	1.009 ± 0.0014
AAGGATCTGC	0.967 ± 0.052
CCGCATTTTT	2.19 ± 0.82
AAGGGTATTG	0.995 ± 0.024
TATTTAAAGT	1.02 ± 0.049

Sequence	switch fluorescence ratio
TTCTATGGCA	0.984 ± 0.043
GTTATTCCGG	1.038 ± 0.0043
GAATAAAAGC	0.9901 ± 0.0063
TCGGGCAACG	1 ± 0.041
ACCCGTAATG	1.75 ± 0.028
AGTTGGTGG	1.02 ± 0.024
GGGTAATGCA	1.033 ± 0.0053
TATTATTGGG	1 ± 0.0054
GACAGGGGCT	1.06 ± 0.022
AAGGGGGGA	1.01 ± 0.072
TGGGTAAGTA	0.993 ± 0.012
TTTGGGTTAC	1.04 ± 0.044
AAGATGCTTA	0.9863 ± 0.0012
GGGGCTTTAA	1.18 ± 0.35
TAATAGTAGT	0.997 ± 0.022
GTGTTATCAC	0.984 ± 0.054
GGGATTAAGA	0.98 ± 0.026
GGGGGTTGAT	0.991 ± 0.069
CGTTAGGGTA	0.9911 ± 0.003
AAAGCGGATT	1 ± 0.018
CTGAGTTGGG	0.9793 ± 0.0042
CAGCAAGGGA	1.12 ± 0.025
GTTTCAAGAG	1.03 ± 0.012

Sequence	switch fluorescence ratio
TTTTGACGAG	1.016 ± 0.0033
TGACGTCAGT	0.972 ± 0.014
TACTGCATAG	1.044 ± 0.0091
TGATGATATG	0.9929 ± 0.0094
TTGAGAAGTT	1.01 ± 0.021
TGAGATTTAG	0.988 ± 0.026
GCATGTGGCT	0.994 ± 0.024
TTGGCTTAG	0.999 ± 0.014
AATTTAAAAA	0.986 ± 0.022
GGTTGGTGGT	1.028 ± 0.0064
GGGGACATGC	0.982 ± 0.078
TTGTTGCCGT	0.984 ± 0.065
ATGAGTGCCA	0.9844 ± 0.0013
TCATTTATAT	0.98 ± 0.047
AAATGACGTC	1.01 ± 0.023
ACGGGTAGCA	0.999 ± 0.016
TTTTACCGTT	1.02 ± 0.015
CGCGATTTTA	1.04 ± 0.019
AAAGGGGTAT	1.03 ± 0.027
ACCTTAGTGC	1.1 ± 0.048
TAGGAGGGT	1.033 ± 0.0037
CCGATTGGTC	1.117 ± 0.0062
TCTTGATGGA	0.9597 ± 0.0014

Sequence	switch fluorescence ratio
GAGGTATTAT	0.9688 ± 0.0074
TCCATGACGC	1.099 ± 0.0088
AGAAATCCTT	0.976 ± 0.036
GAAATGTGTT	1 ± 0.056
AGAGGGCGGA	1 ± 0.02
TTGGTTCAAG	1.013 ± 0.0027
GGGCGGGTGT	0.987 ± 0.059
GGTGATTGTG	0.9826 ± 0.004
GGTGCATAGC	0.9714 ± 0.0074
AAAAGGTTAT	1.02 ± 0.027
GGGACTTGGA	0.9765 ± 0.009
GTGTTGGGTG	1.01 ± 0.011
CTATGTATGT	1.01 ± 0.022
AAGGTCGGGA	0.9966 ± 0.0087
TATTATCGGA	0.996 ± 0.048
TTTTAATTTC	0.955 ± 0.14
TCGTGGCATA	1.11 ± 0.044
TAACTGGGTT	1.02 ± 0.036
TTGTAGAGCT	0.949 ± 0.017
